The supplement of paper PMC9876800

System: peptide library, one residue held at a place counted from the S/T acceptor
Experiment: relative phosphorylation of the sub-library (ratio to the mean residue at this position); higher = residue favoured
Details: human
Summary of the method: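 Relative sub-library phosphorylation is the ratio of each sub-library's signal to the mean residue at that position. The signal came from phosphorimaging of spots on streptavidin membranes, quantified by densitometry, after purified recombinant kinases reacted with biotinylated degenerate peptide sub-libraries in 384-well plates. Reactions held 50 μM peptide and 50 μM ATP spiked with γ-32P-ATP for 90 min under kinase-specific conditions.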

Chain of DCLK2, construct: aa1-690 (Q8N568 1-690, looked up): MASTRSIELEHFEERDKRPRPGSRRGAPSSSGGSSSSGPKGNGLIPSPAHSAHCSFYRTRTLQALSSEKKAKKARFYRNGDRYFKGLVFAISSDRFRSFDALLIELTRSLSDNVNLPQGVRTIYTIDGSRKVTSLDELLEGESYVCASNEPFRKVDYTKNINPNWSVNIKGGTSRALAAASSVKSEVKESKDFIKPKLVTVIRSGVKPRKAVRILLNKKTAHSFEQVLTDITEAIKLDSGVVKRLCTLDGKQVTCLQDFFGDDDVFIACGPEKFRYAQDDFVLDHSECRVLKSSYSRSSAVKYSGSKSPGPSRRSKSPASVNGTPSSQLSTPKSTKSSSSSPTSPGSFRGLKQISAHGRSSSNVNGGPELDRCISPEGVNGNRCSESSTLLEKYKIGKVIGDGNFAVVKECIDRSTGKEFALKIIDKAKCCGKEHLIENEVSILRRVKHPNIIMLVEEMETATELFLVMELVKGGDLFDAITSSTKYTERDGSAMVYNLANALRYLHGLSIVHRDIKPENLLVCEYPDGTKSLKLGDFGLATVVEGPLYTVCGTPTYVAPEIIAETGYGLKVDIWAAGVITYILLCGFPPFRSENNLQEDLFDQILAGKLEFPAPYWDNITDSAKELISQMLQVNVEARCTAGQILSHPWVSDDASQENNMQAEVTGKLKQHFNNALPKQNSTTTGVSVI
Chain of ERN2, construct: aa490-end (Q76MJ5 490-926, looked up): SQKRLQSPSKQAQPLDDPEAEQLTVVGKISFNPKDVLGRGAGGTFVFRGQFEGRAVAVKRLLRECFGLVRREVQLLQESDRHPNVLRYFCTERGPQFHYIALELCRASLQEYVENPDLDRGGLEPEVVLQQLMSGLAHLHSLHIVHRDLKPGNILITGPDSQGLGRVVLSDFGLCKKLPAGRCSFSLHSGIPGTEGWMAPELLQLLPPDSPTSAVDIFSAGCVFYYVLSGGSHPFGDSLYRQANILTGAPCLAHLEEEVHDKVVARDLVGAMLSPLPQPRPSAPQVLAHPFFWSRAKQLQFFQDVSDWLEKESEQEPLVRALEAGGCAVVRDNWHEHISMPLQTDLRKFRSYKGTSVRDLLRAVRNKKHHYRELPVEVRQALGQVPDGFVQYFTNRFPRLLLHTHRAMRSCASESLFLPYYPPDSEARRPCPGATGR

DCLK2, construct: aa1-690 (from UniProt Q8N568)
relative phosphorylation
Details	at +1	at +2	at +3	at +4	at -1	at -2	at -3	at -4	at -5
A fixed	0.573	0.702	0.791	0.84	0.731	1.26	0.798	1.03	0.816
D fixed	0.373	0.373	0.673	0.855	0.669	0.725	0.372	0.573	0.437
E fixed	0.414	0.304	0.701	0.838	0.436	1.56	0.427	0.748	0.4
F fixed	3.73	1.72	1.17	1.22	0.853	0.659	0.406	0.988	1.55
G fixed	0.532	0.412	0.887	0.922	1.31	1.08	0.589	1.11	0.76
H fixed	0.815	1.63	1.19	0.987	1.2	0.934	0.831	1	0.907
I fixed	0.918	1.35	0.815	0.917	0.522	0.437	0.33	0.885	1.1
K fixed	1.18	0.639	1.35	1.28	2.27	1.9	3.49	1.8	1.36
L fixed	0.882	1.26	1.09	1.16	0.884	0.687	0.436	0.99	1.47
M fixed	1.4	1.07	1.02	1.12	0.804	0.909	0.484	0.947	1.15
N fixed	0.77	0.49	0.91	0.93	1.16	1.1	0.581	0.784	0.649
P fixed	0.371	0.522	0.727	1.19	0.981	0.423	0.701	0.977	0.946
Q fixed	0.915	0.531	0.947	1.01	0.863	1.79	0.787	1.04	0.802
R fixed	0.903	0.554	1.37	1.05	2.06	1.65	5.46	1.32	1.44
V fixed	0.702	1.1	0.923	0.758	0.554	0.462	0.315	0.941	0.923
W fixed	1.22	1.42	1.27	1.09	0.621	0.725	0.549	0.914	1.17
Y fixed	1.3	2.91	1.17	0.846	1.09	0.695	0.447	0.942	1.12
pThr fixed	0.782	0.935	1.04	0.993	0.455	0.391	0.374	0.652	0.506
pTyr fixed	0.776	7.04	1.07	0.687	0.515	0.367	0.298	0.548	0.576

ERN2, construct: aa490-end (from UniProt Q76MJ5)
relative phosphorylation
Details	at +1	at +2	at +3	at +4	at -1	at -2	at -3	at -4	at -5
A fixed	0.889	0.315	0.399	0.712	1.08	0.826	0.865	0.986	0.969
D fixed	0.292	0.208	0.22	0.365	0.7	0.969	0.947	0.892	0.961
E fixed	0.428	0.217	0.165	0.347	1.19	1.29	1.02	0.918	0.87
F fixed	0.683	0.733	1.24	0.849	0.953	0.865	0.676	0.677	0.695
G fixed	1.16	0.332	0.407	0.844	0.758	1.11	1.32	1.04	1.01
H fixed	0.924	0.767	1.27	1.08	1.6	1.08	1.17	1.17	1.24
I fixed	0.78	1.09	1.22	1.04	0.459	0.672	0.792	0.732	0.796
K fixed	2.19	2.21	1.39	1.94	0.955	1.43	1.12	1.53	1.6
L fixed	0.702	1.39	1.38	0.935	0.58	0.592	0.66	0.693	0.691
M fixed	1.24	1.32	0.95	0.996	0.951	0.814	0.861	0.751	0.704
N fixed	0.997	0.507	0.441	0.763	0.986	1.1	1.21	1.38	1.17
P fixed	0.247	0.305	0.346	1.15	1.47	1.37	1.09	0.914	0.915
Q fixed	1.44	0.787	0.591	1.04	1.42	1.25	1.27	1.14	1.14
R fixed	2.95	2.57	3.56	1.81	0.94	1.5	1.42	1.57	1.78
V fixed	0.809	1.16	0.669	0.86	0.927	0.732	0.776	0.759	0.704
W fixed	0.572	0.72	1.45	1.21	0.798	0.651	0.875	0.994	0.893
Y fixed	0.694	2.36	1.3	1.04	1.23	0.769	0.941	0.858	0.858
pThr fixed	0.298	0.212	0.237	0.355	0.355	0.648	0.798	0.779	0.732
pTyr fixed	0.286	0.235	0.283	0.296	0.692	0.694	0.652	0.474	0.562
